Molecular target: T1, IVTT-hMSH4 (Homo sapiens, UniProt O15457)
T1 construct: made in house; host or cells: in vitro transcription/translation, TNT coupled reticulocyte lysate (Promega), insert in pCR 2.1
T1 sequence (O15457 1-936): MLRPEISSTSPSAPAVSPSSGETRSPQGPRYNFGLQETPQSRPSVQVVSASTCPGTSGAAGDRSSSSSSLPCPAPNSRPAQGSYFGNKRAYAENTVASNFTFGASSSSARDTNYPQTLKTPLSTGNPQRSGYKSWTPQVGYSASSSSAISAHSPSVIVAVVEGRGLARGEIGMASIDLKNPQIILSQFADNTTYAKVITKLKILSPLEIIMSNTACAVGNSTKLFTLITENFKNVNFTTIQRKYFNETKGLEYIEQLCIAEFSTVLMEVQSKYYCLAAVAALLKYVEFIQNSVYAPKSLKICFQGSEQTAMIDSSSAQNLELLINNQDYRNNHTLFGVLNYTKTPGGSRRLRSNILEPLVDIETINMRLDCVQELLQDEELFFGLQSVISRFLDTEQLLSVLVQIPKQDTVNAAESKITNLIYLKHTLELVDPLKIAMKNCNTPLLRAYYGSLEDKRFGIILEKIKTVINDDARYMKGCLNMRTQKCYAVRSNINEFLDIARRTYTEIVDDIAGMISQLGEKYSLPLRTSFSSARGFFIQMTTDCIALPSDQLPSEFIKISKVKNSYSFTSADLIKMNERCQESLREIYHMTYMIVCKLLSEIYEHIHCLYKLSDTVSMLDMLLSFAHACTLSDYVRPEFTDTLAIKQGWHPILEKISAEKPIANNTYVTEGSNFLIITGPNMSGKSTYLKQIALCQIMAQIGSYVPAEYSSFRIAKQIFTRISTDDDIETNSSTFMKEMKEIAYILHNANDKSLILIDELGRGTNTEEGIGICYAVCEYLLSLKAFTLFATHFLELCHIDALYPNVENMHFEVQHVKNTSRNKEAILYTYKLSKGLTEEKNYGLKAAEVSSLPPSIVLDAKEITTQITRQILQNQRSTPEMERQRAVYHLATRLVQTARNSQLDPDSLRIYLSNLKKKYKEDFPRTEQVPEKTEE
Experiment: GST fusion protein interaction assay
Type: binding
Conditions: GST fusion protein as bait
Method: 500 microliters taken from a 5 milliliter overnight starter culture of cells which expressed an hMSH2-, hMSH3-, hMSH5-, or hMSH6-pGEX-fusion protein with (or non-fused pGEX as a negative control) was inoculated into 50 milliliters of Luria broth which contained 50 micrograms per milliliter ampicillin, and this culture was grown until the optical density at 600 nanometers was about 0.5. Protein expression was induced by addition of 0.1 millimolar (final concentration) IPTG for 2 hours at 30° C. Cells were pelleted and resuspended in 750 microliters of phosphate buffered saline containing protease inhibitors. A 10 minute digestion on ice using 1 milligram per milliliter lysozyme was then performed. After the addition of 0.2% (v/v) Triton X-100 and 1 millimolar dithiothreitol (final concentrations), the lysate was snap-frozen in liquid nitrogen and thawed twice. DNaseI (200 units per milliliter; Boehringer Mannheim, Germany) digestion was performed using the thawed lysate for 30 minutes on ice, after which cell debris was removed by centrifugation at 14,000 rpm at 4° C. for 30 minutes in a benchtop microfuge. […]

interaction with IVTT-hMSH4: significant interaction
B1: hMSH5: human MutS homolog, putative 834-amino-acid protein encoded by clone b29 (SEQ ID NO: 29) (protein)
chain: MASLGANPRRTPQGPRPGAASSGFPSPAPVPGPREAEEEEVEEEEELAEIHLCVLWNSGYLGIAYYDTSDSTIHFMPDAPDHESLKLLQRVLDEINPQSVVTSAKQDENMTRFLGKLASQEHREPKRPEIIFLPSVDFGLEISKQRLLSGNYSFIPDAMTATEKILFLSSIIPFDCLLTVRALGGLLKFLGRRRIGVELEDYNVSVPILGFKKFMLTHLVNIDQDTYSVLQIFKSESHPSVYKVASGLKEGLSLFGILNRCHCKWGEKLLRLWFTRPTHDLGELSSRLDVIQFFLLPQNLDMAQMLHRLLGHIKNVPLILKRMKLSHTKVSDWQVLYKTVYSALGLRDACRSLPQSIQLFRDIAQEFSDDLHHIASLIGKVVDFEGSLAENRFTVLPNIDPEIDEKKRRLMGLPSFLTEVARKELENLDSRIPSCSVIYIPLIGFLLSIPRLPSMVEASDFEINGLDFMFLSEEKLHYRSARTKELDALLGDLHCEIRDQETLLMYQLQCQVLARAAVLTRVLDLASRLDVLLALASAARDYGYSRPRYSPQVLGVRIQNGRHPLMELCARTFVPNSTECGGDKGRVKVITGPNSSGKSIYLKQVGLITFMALVGSFVPAEEAEIGAVDAIFTRIHSCESISLGLSTFMIDLNQVAKAVNNATAQSLVLIDEFGKGTNTVDGLALLAAVLRHWLARGPTCPHIFVATNFLSLVQLQLLPQGPLVQYLTMETCEDGNDLVFFYQVCEGVAKASHASHTAAQAGLPDKLVARGKEVSDLIRSGKPIKPVKDLLKKNQMENCQTLVDKFMKLDLEDPNLDLNVFMSQEVLPAATSIL
modifications: left off: a dimerising Fc or GST; large carriers; small tags and cut ends
